Columns and labels:
[1] = target: T1, recombinant human PCSK9-His protein (Immunogen A) (human, UniProt Q8NBP7 31-692, limits assumed, biotinylated in the ELISA assays); test: BLI, Octet Red 96; antibody on AHC sensor
T1 construct: also called hPCSK9-His; His-tagged hPCSK9; not shown: His tag

[2] = target: T1, recombinant human PCSK9-His protein …; test: ELISA; antibody 66.67 nM
[3] = target: T2, recombinant cyno monkey PCSK9 protein (cyno monkey, UniProt A8T666 31-692 (rhesus entry), limits assumed, biotinylated in the ELISA assays); test: ELISA; antibody 0.067 nM
T2 construct: also called cyno PCSK9; Cyno Monkey PCSK9-His
T2 sequence (A8T666 31-692 limits assumed): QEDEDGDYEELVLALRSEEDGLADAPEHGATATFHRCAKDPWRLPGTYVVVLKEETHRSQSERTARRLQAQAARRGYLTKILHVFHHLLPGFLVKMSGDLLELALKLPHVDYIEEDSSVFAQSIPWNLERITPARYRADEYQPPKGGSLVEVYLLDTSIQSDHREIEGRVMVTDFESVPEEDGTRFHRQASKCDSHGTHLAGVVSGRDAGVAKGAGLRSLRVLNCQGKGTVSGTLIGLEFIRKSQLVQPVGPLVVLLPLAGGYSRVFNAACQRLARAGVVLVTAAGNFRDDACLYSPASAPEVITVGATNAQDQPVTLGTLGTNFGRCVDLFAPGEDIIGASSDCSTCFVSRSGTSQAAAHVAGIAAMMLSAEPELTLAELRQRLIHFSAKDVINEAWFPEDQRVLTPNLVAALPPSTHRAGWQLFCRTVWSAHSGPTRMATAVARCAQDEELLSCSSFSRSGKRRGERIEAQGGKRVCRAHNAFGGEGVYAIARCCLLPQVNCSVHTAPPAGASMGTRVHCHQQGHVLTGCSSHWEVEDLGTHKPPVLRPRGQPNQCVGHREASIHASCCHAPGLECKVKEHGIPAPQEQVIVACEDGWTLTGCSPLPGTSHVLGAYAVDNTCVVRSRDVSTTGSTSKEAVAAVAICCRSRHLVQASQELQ

[4] = target: T2, recombinant cyno monkey PCSK9 protein; test: ELISA; antibody 6.67 nM
[5] = target: T2, recombinant cyno monkey PCSK9 protein; test: ELISA; antibody 0.0067 nM
[6] = target: T1, recombinant human PCSK9-His protein …; test: ELISA of PCSK9 binding to LDLR ECD; antibody 200 nM
[7] = target: T2, recombinant cyno monkey PCSK9 protein; test: ELISA; antibody 0 nM
[8] = target: T2, recombinant cyno monkey PCSK9 protein; test: ELISA; antibody 0.67 nM
[9] = target: T1, recombinant human PCSK9-His protein …; test: ELISA of PCSK9 binding to LDLR ECD; antibody 0 nM
[10] = target: T2, recombinant cyno monkey PCSK9 protein; test: ELISA; antibody 0.00067 nM
[11] = target: T1, recombinant human PCSK9-His protein …; test: ELISA; antibody 0.00067 nM
[12] = target: T1, recombinant human PCSK9-His protein …; test: ELISA; antibody 0 nM
[13] = target: T1, recombinant human PCSK9-His protein …; test: ELISA; antibody 0.0067 nM
[14] = target: T2, recombinant cyno monkey PCSK9 protein; test: ELISA; antibody 66.67 nM
[15] = target: T1, recombinant human PCSK9-His protein …; test: ELISA; antibody 0.000067 nM
[16] = target: T1, recombinant human PCSK9-His protein …; test: ELISA of PCSK9 binding to LDLR ECD; antibody 1.6 nM
[17] = target: T1, recombinant human PCSK9-His protein …; test: ELISA; antibody 0.067 nM
[18] = target: T1, recombinant human PCSK9-His protein …; test: ELISA; antibody 6.67 nM
[19] = target: T1, recombinant human PCSK9-His protein …; test: ELISA of PCSK9 binding to LDLR ECD; antibody 40 nM
[20] = target: T1, recombinant human PCSK9-His protein …; test: ELISA of PCSK9 binding to LDLR ECD; antibody 0.01 nM
[21] = target: T1, recombinant human PCSK9-His protein …; test: ELISA of PCSK9 binding to LDLR ECD; antibody 0.32 nM
[22] = target: T1, recombinant human PCSK9-His protein …; test: ELISA; antibody 0.67 nM
[23] = target: T2, recombinant cyno monkey PCSK9 protein; test: ELISA; antibody 0.000067 nM
[24] = target: T1, recombinant human PCSK9-His protein …; test: SPR, Biacore T200; antibody captured by anti-human Fc
Method: Anti-human Fc IgG was immobilized on flow cells 1 and 2: HBS-EP+(10 mM HEPES, 150 mM NaCl, 3 mM EDTA, 0.05% P20, pH 7.4) was used as running buffer, and the immobilization of anti-human Fc IgG was carried out using the immobilization wizard template. Flow cells 1 and 2 of a Series S CM5 sensor chip were activated with freshly-mixed 50 mmol/L NHS and 200 mmol/L EDC. 20 ug/mL of anti-human Fc IgG diluted in 10 mM NaAC (pH 4.5) was injected into the activated flow cells 1 and 2. The remaining active coupling sites were blocked with 1M ethanolamine.
KD measurements were carried out with HBS-EP+ as the running buffer. Each antibody was injected over the CM5 sensor flow cell 2 with a flow rate of 10 uL/min to reach response 230 RU. […] Buffer flow was maintained for 400 seconds for dissociation measurements (30 uL/min). To remove the tested antibody from the surface, 10 mM glycine-HCl pH 1.5 was injected for 20 seconds (30 ulJmin). Flow cell 1 was used as reference flow cell. […] The KD value for each antibody was evaluated using Biacore T200 evaluation software 1.0, and the data was fit with a 1:1 binding model.

[25] = target: T1, recombinant human PCSK9-His protein …; test: ELISA of PCSK9 binding to LDLR ECD; antibody 0.06 nM
[26] = target: T1, recombinant human PCSK9-His protein …; test: ELISA of PCSK9 binding to LDLR ECD; antibody 8 nM

B1: 96F8C6, fully human anti-PCSK9 antibody (antibody, human IgG1, V domains shown)
VH: EVQLVESGGGLVQPGGSLRLSCAASGITFSSYWMSWVRQAPGKGLEWVANIKQDGSEKYYVDSVKGRFTISRDIAKNSLYLQMNSLRAEDTAVYYCARDRGTYYYGSGSYNYYYYGMDVWGQGTTVTVSS
VL: not shown
notes: also called 98F8C6
Work on B1 yielded a Kd [1] of 3.63 nM, an OD450 nm [2] of 3.06 OD450 nm and an OD450 nm [3] of 1.86 OD450 nm. The OD450 nm [4] was 3 OD450 nm, the OD450 nm [5] was 0.31 OD450 nm and the OD450 nm [6] was 2.4 OD450 nm. For the same binder, the OD450 nm [7] was 0.06 OD450 nm, the OD450 nm [8] was 2.99 OD450 nm and the OD450 nm [9] was 2.4 OD450 nm. The OD450 nm [10] was 0.09 OD450 nm, the OD450 nm [11] was 0.08 OD450 nm and the OD450 nm [12] was 0.06 OD450 nm. The OD450 nm [13] was 0.25 OD450 nm, the OD450 nm [14] was 2.97 OD450 nm and the OD450 nm [15] was 0.06 OD450 nm. It also gave an OD450 nm [16] of 2.4 OD450 nm, an OD450 nm [17] of 1.65 OD450 nm and an OD450 nm [18] of 3.1 OD450 nm. The OD450 nm [19] was 2.38 OD450 nm, the OD450 nm [20] was 2.38 OD450 nm and the OD450 nm [21] was 2.45 OD450 nm. It also gave an OD450 nm [22] of 3.09 OD450 nm, an OD450 nm [23] of 0.08 OD450 nm and a Kd [24] of 2.33 nM. It also gave an OD450 nm [25] of 2.43 OD450 nm and an OD450 nm [26] of 2.38 OD450 nm.

— patent publication US20180355059A1 (PHARMAEXPLORER, published 2018)
